Measurements reported in publication PMC6581901, “The SRP signal sequence of KdpD” (Scientific Reports, 2019).

What was measured:
[1] = biological target: T1, SRP reconstituted from wild-type Ffh (406C) and 4.5S RNA (E. coli, UniProt P0AGD7 1-453); assay: cross-linking; disulfide cross-linking with 1 mM copper phenanthroline; 2 µM reconstituted SRP (Ffh + 3 µM 4.5S RNA) with 20 µM peptide, 1 h on ice, 50 mM Tris pH 7.4, 150 mM NaCl, 10 mM MgCl2; TCA precipitation, SDS-PAGE with or without DTT; details: both partners purified
T1 construct: Ffh (fifty-four-homolog), 48-kDa protein component of E. coli SRP, expressed from pMS-Ffh-C-Strep; Ribonucleoprotein: Ffh with a 1.5-fold molar excess of 4.5S RNA; the RNA is not written as a chain; also called wildtype SRP; source: E. coli BL21 (DE3), purified (Strep-Tactin, Superdex 75); reconstituted with in vitro transcribed 4.5S RNA
T1 sequence (looked up): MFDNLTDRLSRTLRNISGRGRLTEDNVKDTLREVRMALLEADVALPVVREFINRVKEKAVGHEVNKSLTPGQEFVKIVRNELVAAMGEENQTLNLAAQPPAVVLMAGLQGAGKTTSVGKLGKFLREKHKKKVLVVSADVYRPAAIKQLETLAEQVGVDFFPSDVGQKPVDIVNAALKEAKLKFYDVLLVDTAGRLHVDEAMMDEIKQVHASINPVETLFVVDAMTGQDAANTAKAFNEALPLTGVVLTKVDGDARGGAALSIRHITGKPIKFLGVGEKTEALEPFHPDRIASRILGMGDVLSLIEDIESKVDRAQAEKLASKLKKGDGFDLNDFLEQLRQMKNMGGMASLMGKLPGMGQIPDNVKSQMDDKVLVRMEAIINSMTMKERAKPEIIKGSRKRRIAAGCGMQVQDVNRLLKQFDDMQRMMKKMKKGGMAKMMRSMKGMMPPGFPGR

[2] = biological target: T2, SRP reconstituted from Ffh 406S/423C and 4.5S RNA (E. coli, UniProt P0AGD7 1-453, M423C | C406S); assay: as above; details: both partners purified
T2 construct: Ffh of E. coli SRP with a cysteine at 423 (M domain pocket) and a serine at 406, from pMS-Ffh-M423C-C-Strep; Ribonucleoprotein with 4.5S RNA; also called SRP 423; Ffh M423C; source: E. coli BL21 (DE3), purified (Strep-Tactin, Superdex 75); reconstituted with in vitro transcribed 4.5S RNA
T2 sequence (looked up): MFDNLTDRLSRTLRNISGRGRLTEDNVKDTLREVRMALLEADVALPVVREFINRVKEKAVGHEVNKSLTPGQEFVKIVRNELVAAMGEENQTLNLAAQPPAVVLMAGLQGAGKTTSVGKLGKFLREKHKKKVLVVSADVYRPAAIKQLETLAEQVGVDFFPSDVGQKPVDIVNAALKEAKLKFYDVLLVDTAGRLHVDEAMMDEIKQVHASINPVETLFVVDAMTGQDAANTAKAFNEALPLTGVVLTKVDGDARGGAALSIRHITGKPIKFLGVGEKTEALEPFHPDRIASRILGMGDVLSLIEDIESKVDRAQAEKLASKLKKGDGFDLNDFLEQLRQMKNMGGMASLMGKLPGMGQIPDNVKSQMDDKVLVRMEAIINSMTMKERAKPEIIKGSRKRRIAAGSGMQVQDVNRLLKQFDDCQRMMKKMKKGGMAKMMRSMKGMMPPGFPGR

B1: KdpD peptide (residues 22-48), in vitro synthesized (peptide)
peptide: Ac-RGKLKVFFGACAGVGKTWAMLAEAQRL-NH2
notes: also called KdpD22-48; KdpD22–48 peptide; source: synthetic peptide (GENOSPHERE Biotechnologies, purity >95%)
Question: What does the source list for B1?
Answer: binding result [1]: binds; binding result [2]: binds
